This is an account of results in a protein production outcome set (Wang et al. 2014).
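Further: failed if final PepcDB status was selected cloned or expressed and not failed if soluble or beyond.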

This data set is described as follows: label from the status in PepcDB records.
For the sequence “MNSLDKLKTFIIILIIFSIGFFSRIETAELKGMNTADRAYFTDENGLPYMYEPDSYYNYRLTANILDHGHPGDKIINGTPWDLHSNYPPGNRVNYPPLILWISLLFHNFINLFIPFSLIETCFWLPAIIGPLAGIVMFFMVRRYAGDLPGLLSGVLLVLAPVYFSRTVPGFFDTDMFNIIFPLLVIFFLLKATETKNNYMFPLLLSSFSLALLSLSWNGWAYIFYIIIISSILYMTLCKLKGKAVMGFSRKIAVFVIISLLIIGLAGRLGYALIFPTFFKFTFKSLSAGGWPGIFESISELSAPTFDEFLSLPGPVNMGIGLFGFVIIGSIMLRDEIKRVHLPDFSWYPFILIGIWLIIGLAAYSLSTRFALLVIPPLIIFLGLLMGVMASYLKGSPSMRLRRSGNVFILSLVVMLSTISFIQAYEIQFVPIVDDDFVAASYWIKNETSMDTVVITEWGYGHPLATFSQRPVLMDGGMNPSTPRSYWVYHAFATNNESLSIGIFSMLSTSGNKAVELLNNRTGNTSLTVTILDDILGVNRIYAEKTLQEKYGIDPGFTGELLSYTHPTNKPFIILTKDDMIKWGHWYIYYGFWDFNRSRGYDYIYYVGSSNDTGQIRYYSNDVKFDLTSGASWENRKPYTTIIKYRNFKRVIEGDGKSDFSIIVLLDKNQAIVVDKRFQDSLFVKLVILKEETEHIKPIYKNNSTIIWTVR”, the protein production result is reported as “failed”.

With “MKQLLEFIPLILFFAVYKLVGVQAAAITLVLATILQLILVRILFKKLETSQWIVGLSVIIFGILTAYFDDLAFLKWKVTIINGLFAAVLLISQYVFHKPVVKMLLAKELSLPTQVWNRLNLGWAIFFIICMLINIIISQLFSDDTWATFKTFGFTGLSLVAVIITGIYLYPYIKKLENNNEQK”, the protein production result is on record as “failed”.

Take “LTGFQNYLNSIIDSMPSALIALDEQLYVTQWNQEASALSGTRLDEALNQPIFLAFEPLKPFLPQLKETVEQHTVTKVERVTWFKDEEPKHYALTFYPLMGGAGRGVVIRIDDITQRLSLEEMMVQSEKMLSVGGLAAGMAHEINNPLGAI”: the protein production result is recorded as “failed”.

In the case of “MVLFHLIKKESLQIFRNRTALLMMVIFPILMIVILSFAFKSSFNTATTVPKLTIRYQLEGEKTDYQKNFLAFLKVLNQKLHLETKPSNSLEKDRQRVSEGALTAVLEVKKNQTIKVITNNINQQNADLINMLVKNYVDNAKTYDSIAALYPQQLNHIRKRSVDYVKVSSIQTSKGMTSADYYAISMFTMITFYSMMSAMNLVLSDRQQRITNRIHLTGVSPSFLVFGKLIGAMLATTVQLSLLYIFTRFVLRVNWGTNEWMLIGITASLVYLSVAIGIGLGISIKNEAFLTVASNTIIPIFAFLGGSYVPLTTLHSSIINQLSNISPIKWVNDSLFYLIFGGQYNPIPVTLIVNISIGTIFIILALIGMRKQVTT”, the protein production entry was “failed”.

As for “MRNLIISAALVAASLFGMSAQAAEPIESGKQYVELTSAVPVAVPGKIEVIELFWYGCPHCYAFEPTINPWVEKLPSDVNFVRIPAMFGGPWDAHGQLFITLDTMGVEHKVHAAVFEAIQKGGKRLTDKNDMADFVATQGVNKDDFLKTFDSFAVKGKIAQYKELAKKYEVTGVPTMIVNGKYRFDLGSAGGPEKTLQVADQLIDKERAAAKAAK”, the protein production result is “failed”.

Regarding “MNKLYIGNLSPAVTADDLRQLFGDRKLPLAGQVLLKSGYAFVDYPDQNWAIRAIETLSGKVELHGKIMEVDYSVSKKLRS”, the protein production entry is “not failed”.

Regarding “MSYNNSYDVIILAGGLSKRFGADKCCFEVNSKTMLDRLLEQFDNPIVVSRSPRRIKKGILVIEKGEYEGPVKGVREGLKYVRRDRVFITGCDFPFLIKNLVDYVCSKPYDIVIPFDHRPQPLLACYSTELLNKNIDKINGLVELIELSSSVYFIGTEELLKIDPFLYSLININSIIDLIYRPIRIKTKSNFILRLEHHHHHH”, the protein production result is “failed”.

Take “MDDEGLPRFAGVVYDQEEGIDALVGDFVEGLLARKLRVGGLLQGREPDAEGVTRTVVRVIGKARRIVISQNLGRHSTACSIDSAAIAEAAVALRQALEERPALIVGNRFGHLELEGAGMSEEMLDILASGTPFLIPVARRFEEGWRRFTGDMGDLLDPRPAALTAWFEALAPVTALEHHHHHH”: the protein production result is reported as “failed”.

For the sequence “MSHVLVNVAWPYANGPRHIGHVAGFGVPSDVYARYERMKGNDVLMVSGTDEHGTPILVEAEKEGLTAQELANRYNRVIAKDLCDLGLSYDLFTRTTTGNHEHVVQEMFKQCLENGYIYKGSQQVAISPSTGRTLPDRYIEGECPICHAEGARGDQCDACGNELDPDELINPVSKINGETPRFEQTEHYFLDLPALAEANKAWLETRKGWRTNVINFSLGLFKEVKPRAITRDIDWGIPVPVKGWIDNPNKKLYVWFDAVIGYLSASIEWARRQGDPEKWREWWNDPKCPAYYFMGKDNITFHSQIWPSEMLAYNGKGSKGGETGPMGPLNLPEQVVASEFMTMEGKKFSSSRGIVIYVKDILARYPVDAVRYYISVAGPESSDSDFTWAEFVRHNNEELASSWGNLVNRVANLINKNFGEIPPLDEDSMTNEDRGLLEEASAAFDVVGSSIETHHQKHALSEAMRVVGDINKYISATEPWKIKDDQARLGTVLHVAAQAVSDANHLLAPFLPHSAQKVWEALGGTGTFSPLPELKEVEDLDKPGFTYPIITGDYELGVNVHPWKSEAIEVGAVVPKPAPIFAKIPTEAVEEELARFDEALAARRAAEAERLAAEKAKLAAE”, the protein production entry was “failed”.

Consider “MKSADGLLHVAFTPSKATGKVLASELPEKVGKRSSVLYPASLKAGNDIGVPVQSVDTVLLQQALSAPVLSVASPSAVRAWLHLIQNEEQWSNYVACIGETTASAARRLGLKNVYYPEKPGLEGWVESIMEALGAHADSSNPSSRN”, for which the protein production result is “failed”.

As to “MKASSLAFSLLSAAFYLLWTPSTGLKTLNLGSCVIATNLQEIRNGFSEIRGSVQAKDGNIDIRILRRTESLQDTKPANRCCLLRHLLRLYLDRVFKNYQTPDHYTLRKISSLANSFLTIKKDLRLCHAHMTCHCGEEAMKKYSQILSHFEKLEPQAAVVKALGELDILLQWMEETE”, the protein production result is recorded as “failed”.

Take “MVQNLSREQYGFVIWVVGNNSIPEEIRSLTTFLSWENLGTCLLLDPNAHVGSLCCSHRRVLLVEEFLGSYLSWGILDFDLFVQSNALNGGVIDMLRRFGVEVHISQPPTKTKKRSNANRKGFPDIELGKAMHSRALERNPSPMLLISSDSRLHTDVSHITSLAFEIILFHTKKAPKDLKDLATKRVLWFDGVSKLTEVRI”: the protein production entry is reported as “failed”.

For the sequence “MKSSVVSAWDMLWRSHREAKRLLLFAMPVRAGKDAGLKINSEQTMKEEKPPSYKTPQKIGLLLGPALFFAVLLFFFPEGLSYEGRMVLATTLWVAVWWITEAVPIPAASLLPIVLLPLTGALEGAAVTSSYGDPIVFLFLGGFLIALAMERWNLHKRIALNIISVVGTSTSRIVLGFMAATGFLSMWVSNTAAVMMMLPIGTAIIHQVSAVIKSERKDLAAEEAKFSKALIFSIGYAGTIGGLGTLIGTPPNIILAANIKKLYGVEVSFGGWMAFAVPVVVILLVAVWLYLTKVAHPIKMKELPGGKELILEEKRKLGKMSFEETMVLLVFGFAAFMWVTRTFLWDDKIPGIDDTMIAIFAASLLFLIPSLNKGGRVLDWSVSKDLPWGILLLFGGGLALATGFKETGLAEWIGGRLTVLDGFNFVVIVIISTALVLFLTEITSNTATATMILPVLASLALALNVHPYALMVPAAMAANCAFMLPVGTPPNAIIFASGKLKISEMVRTGFVINIFTLILIVGAVFYILPHLWGVDLTVFPDNLKSN”, the protein production entry is given as “failed”.

For “KTGQLLPKSPAARYEAIQWLMFQMGGVGPMFGQLGFFHKFAGKDYEDKRPRDRYVAESRRLLQVLEGRMAGRAWIMGDEYTIADIAIWPWVRNLVGFYGAGELVGFDDFPNIQRVVQAFAERPAVARGLAIPARD”, the protein production entry was “failed”.

For “MQSRLSKILRSSVVGVAVLALLAGCSNNADDTDADSTSTGNSAFPVSIEHEFGTTTIDDVPERVVTLGVTDADIVLALGTVPVGNTGYKFFENGLGPWTDELVEGKELTLLDSDSTPDLEQVAALEPDLIIGVSAGFDDVVYEQLSDIAPVVARPAGTAAYAVAREEATNLVARAMGQSEKGQELNEETDALIQAARDENPSFDGKTGTVILPYQGKYGAYLPGDARGQFLDSLGISLPEAVLSRDTGDSFFVDVPAESVKDVDGDVLLVLSNDENLDITAENPLFETLNVVQKDAVIVATTEERGAITYNSVLSVPFALEHLAPRIAEALK”, the protein production entry is “failed”.

With “FSKTQRWAEPGEPICVVCGRYGEYICDKTDEDVCSLECKAKHLLQVKEKEEKS”, the protein production entry is listed as “not failed”.
